In PMC8892158:

Biological target: Staphylococcus aureus FakA (S. aureus)

Substance: Staphylococcus aureus FakB1 (wild type), palmitate-loaded (from UniProt X5EH37 1-288) (natural protein)
- apparent KM of FakB1 in the FA kinase assay with 0.2 μM FakA: 0.13 µM

Substance: Staphylococcus aureus FakB1(A121I), palmitate-loaded (from UniProt X5EH37 1-288) (natural protein)
- apparent KM of FakB1(A121I) in the FA kinase assay with 0.2 μM FakA: 0.1 µM

Substance: Staphylococcus aureus FakB1(A158L), myristate-loaded (from UniProt X5EH37 1-288) (natural protein)
- apparent KM of FakB1(A158L) in the FA kinase assay with 0.2 μM FakA: 0.13 µM
